The values below come from patent US8530168B2, “Fusion protein comprising a Caspase domain and a nuclear hormone receptor binding domain and methods and uses thereof” (Helmholtz Zentrum Munich Deutsches Forschungszentrum fuer …, priority 2007, dated 2013).

The subject of one data set is Pac2 cells. Kind of data set: Transient cotransfection with β-galactosidase reporter into Pac2 cells. Particulars: 10^−8 M 4-OH-tamoxifen, Cre-ER(T2) as reference, range given jointly for HeLa and Pac2. Format: cell-based, zebrafish. Here is the method:
(§1) Results are shown as mean values of triplicate samples with standard deviation. (b) Transient cotransfection of a β-galactosidase reporter with a Cre-ER(T2), myrCasp8-ER(T2), or Casp9-ER(T2) expression plasmid into murine M5/N9 (black columns), human HeLa (grey columns) or zebrafish Pac2 (open columns) cells. 12 h following transfection, cells were cultured for 36 h with 4-OH-tamoxifen at 10^−8 M and the activity of β-galactosidase in cell lysates was determined. Values obtained from transfections of the Cre-ER(T2) vector were defined as reference. Results are shown as mean values of triplicate samples with standard deviation.
PAC2 zebrafish fibroblasts were grown in Leibowitz's L15—with L-Glutamine medium supplemented with 1% Non-essential Amino Acids, 1% Penicillin/Streptomycin and 10% fetal calf serum (all Gibco) at 28° C. 3×10^6 Cells were transiently transfected with the plasmids CMVβ together with CAG-CreER(T2), CAG-myrCasp8ER(T2) or CAG-Casp9ER(T2) (500 ng each) using nanofectin transfection reagent (PAA). 24 hrs after transfection the medium was replaced and conditioned with 10^−8 M 4-OH-tamoxifen. Before lysis, the cells were incubated for another 24 hrs at 28°. […]

A further data set has as its system HeLa cells. Kind of data set: Transient cotransfection with β-galactosidase reporter into HeLa cells. Format: cell-based, human. The settings on record: 10^−8 M 4-OH-tamoxifen, Cre-ER(T2) as reference, range given jointly for HeLa and Pac2. The protocol: as §1
Transient transfections into M5/N9 and HeLa cells were performed with FuGene transfection reagent (Roche) following the manufacturer's instructions. Briefly, semiconfluent cultures in a 24-well plate were transfected in triplicate with 112 ng of the β-galactosidase expression vector CMVβ(Invitrogen) and the same amount of pCAG-Cre-ER(T2), pCAG-Casp8-ER(T2) or pCAG-Casp9-ER(T2) plasmid DNA. After 12 h 4-OH-tamoxifen was added at a concentration of 10^−8 M and the cultures were lysed at 48 h. Cell lysis and the measurement of β-galactosidase activity by chemiluminescence were performed with the β-galactosidase reporter gene assay (Roche) using a Centro LB960 plate luminometer (Berthold). […]

B1: myrCasp8-ER(T2): murine Caspase-8 domain with N-terminal myristoylation motif fused to ER(T2) ligand binding domain, SEQ ID NO: 23 (protein)
chain: MGSSKSKPKDPSQRSESRTSDKVYQMKNKPRGYCLIINNHDFSKAREDITQLRKMKDRKGTDCDKEALSKTFKELHFEIVSYDDCTANEIHEILEGYQSADHKNKDCFICCILSHGDKGVVYGTDGKEASIYDLTSYFTGSKCPSLSGKPKIFFIQACQGSNFQKGVPDEAGFEQQNHTLEVDSSSHKNYIPDEADFLLGMATVKNCVSYRDPVNGTWYIQSLCQSLRERCPQGDDILSILTGVNYDVSNKDDRRNKGKQMPQPTFTLRKKLFFPPLEPSAGDMRAANLWPSPLMIKRSKKNSLALSLTADQMVSALLDAEPPILYSEYDPTRPFSEASMMGLLTNLADRELVHMINWAKRVPGFVDLTLHDQVHLLECAWLEILMIGLVWRSMEHPVKLLFAPNLLLDRNQGKCVEGMVEIFDMLLATSSRFRMMNLQGEEFVCLKSIILLNSGVYTFLSSTLKSLEEKDHIHRVLDKITDTLIHLMAKAGLTLQQQHQRLAQLLLILSHIRHMSNKGMEHLYSMKCKNVVPLYDLLLEAADAHRLHAPTSRGGASVEETDQSHLATAGSTSSHSLQKYYITGEAEGFPATA
modifications: N-terminal myristoylation motif; fusion protein myrCasp8-ER(T2)
Regarding B1, the “reduction of β-Galactosidase activity in presence of 4-OHT” value with Pac2 cells and in the data set with HeLa cells was 95-99% throughout.

B2: Casp9full-ER(T2): full length murine Caspase-9 fused to ER(T2) ligand binding domain, SEQ ID NO: 29 (protein)
chain: MDEADRQLLRRCRVRLVSELQVAELWDALLSRELFTRDMIEDIQQAGSGSRRDQARQLVTDLETRGRQALPLFISCLEDTGQGTLASLLQSGRQAAKQDPEAVKPLDHLVPVVLGPMGLTAKEQRVVKLDPSQPAVGNLTPVVLGPEELWPARLKPEVLRPETPRPVDIGSGGAHDVCVPGKIRGHADMAYTLDSDPCGHCLIINNVNFCPSSGLGTRTGSNLDRDKLEHRFRWLRFMVEVKNDLTAKKMVTALMEMAHRNHRALDCFVVVILSHGCQASHLQFPGAVYGTDGCSVSIEKIVNIFNGSGCPSLGGKPKLFFIQACGGEQKDHGFEVACTSSQGRTLDSDSEPDAVPYQEGPRPLDQLDAVSSLPTPSDILVSYSTFPGFVSWRDKKSGSWYIETLDGILEQWARSEDLQSLLLRVANAVSAKGTYKQIPGCFNFLRKKLFFKTSVEPSAGDMRAANLWPSPLMIKRSKKNSLALSLTADQMVSALLDAEPPILYSEYDPTRPFSEASMMGLLTNLADRELVHMINWAKRVPGFVDLTLHDQVHLLECAWLEILMIGLVWRSMEHPVKLLFAPNLLLDRNQGKCVEGMVEIFDMLLATSSRFRMMNLQGEEFVCLKSIILLNSGVYTFLSSTLKSLEEKDHIHRVLDKITDTLIHLMAKAGLTLQQQHQRLAQLLLILSHIRHMSNKGMEHLYSMKCKNVVPLYDLLLEAADAHRLHAPTSRGGASVEETDQSHLATAGSTSSHSLQKYYITGEAEGFPATA
modifications: fusion protein Casp9full-ER(T2)
With B2, the “reduction of β-Galactosidase activity in presence of 4-OHT” value in the data set with Pac2 cells and in the data set with HeLa cells was 91-93% each time.
